Publication PMC12678776

Legend:
[1] = tested on: ecHOP1-wHTH (SUMO-wHTH) (Ectocarpus); test: EMSA; settings: apparent Kd, Hill h = 1.7; 50 nM DNA; EMSA: 50 nM nucleic acid, protein 25 nM-2 uM, ~30 min at 4 C, 0.8% agarose in 0.2% TBE (so in the source) at 4 C, SYBR Gold; binding buffer, salt and pH not stated
[2] = biological target: 2xStrepII-ecHOP1-HORMA (ecHOP1 residues 1-274) (Ectocarpus siliculosus); test: ITC; 350 µM MBP-tagged CM titrated into 25 µM ecHOP1-HORMA in the cell; 50 mM HEPES pH 7.5, 150 mM NaCl, 1 mM EDTA; 25 °C; MicroCal PEAQ-ITC; triplicate

| Substance | Kd [1] [µM] | Kd [2] [µM] |
| --- | --- | --- |
| 167 bp Widom DNA | 0.25 |  |
| His6-MBP-CM-R-A (ecRED1 closure motif A) (domain or fragment) |  | 60.3 |
| MBP-CM-H1-A (ecHOP1 isoform 1 closure motif A, residues 567-600) (domain or fragment) |  | 7.2 |
| MBP-CM-H1-B (ecHOP1 isoform 1 closure motif B, residues 665-694) (domain or fragment) |  | 10.6 |
